Data: patent publication US20140162285A1, “Methods of Modulating Vesicular Trafficking” (The General Hospital Corporation, priority 2009, published 2014)
Entries after “also recorded” stand apart in the source; their conditions may differ. One block for each molecule: values may come before it. Square brackets hold non-standard residues; d marks the D form. Ends that are not written are not given here. * marks the point of attachment. Biotin = O=C1N[C@H]2[C@H](CS[C@H]2CCCCC(=O)*)N1; pS = N[C@@H](COP(=O)(O)O)C(=O)O

Tests used:
[1] = biological target: T1, GST-ARNO(wt) (Homo sapiens, UniProt Q99418); experiment: a2N-derived peptide pull-down assay with GST-ARNO(wt); type: binding; design: key to interaction with ARNO (asterisk mark in Table 1): The interacting peptides are indicated in bold with an asterisk (*); details: for interaction of a2N-derived peptide with GST-ARNO(wt) in pull-down: Western blot anti-GST, GST-only as control; for interaction with ARNO (asterisk mark in Table 1): biotin-tagged peptides on streptavidin beads
T1 construct: i) 1-400aa, full length ARNO(wt); made in house; host or cells: E. coli BL21(DE3)
T1 sequence (Q99418 1-400): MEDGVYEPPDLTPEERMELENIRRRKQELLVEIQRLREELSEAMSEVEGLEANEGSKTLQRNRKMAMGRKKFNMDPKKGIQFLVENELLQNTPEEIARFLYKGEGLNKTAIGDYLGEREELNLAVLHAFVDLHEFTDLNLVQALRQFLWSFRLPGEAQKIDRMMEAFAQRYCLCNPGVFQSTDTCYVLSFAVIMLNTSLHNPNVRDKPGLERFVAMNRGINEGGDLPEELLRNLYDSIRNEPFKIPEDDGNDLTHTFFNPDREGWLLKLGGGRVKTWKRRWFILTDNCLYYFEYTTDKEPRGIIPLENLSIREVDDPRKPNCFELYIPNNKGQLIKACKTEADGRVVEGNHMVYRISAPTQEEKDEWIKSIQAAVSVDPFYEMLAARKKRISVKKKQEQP
Experimental: FIG. 2A is an image of a Western blot showing the results of an a2N-derived peptide pull-down assay. The indicated a2N-derived peptides were immobilized on streptavidin-beads and incubated with purified recombinant GST-ARNO(wt). Interacting complexes were eluted and analyzed by Western blotting using monoclonal anti-GST antibodies.
FIG. 2B is an image of a Western blot showing the results of a pull-down assay with selected a2N-derived interacting peptides incubated with either GST (negative control) or GST-ARNO(wt). The first two lanes show the patterns obtained when either GST-only (lane 1) or GST-ARNO(wt) (lane 2) were loaded onto the gel.
Peptides were synthesized, purified by HPLC and analyzed by mass spectrometry in the MGH Peptide/Protein Core Facility. All a2N-derived peptides were synthesized with a biotin-tag on the N-terminus for immobilization on streptavidin-agarose beads and with an additional C-terminal cysteine residue for immobilization on beads using sulfhydryl-specific crosslinkers. A peptide corresponding to the PB-domain of ARNO was synthesized containing either a non-phosphorylated or a phosphorylated Ser392 residue. Peptide stock solutions were prepared in DMSO at 5 mM concentration and stored at −20° C. […]

[2] = biological target: T2, 6His-a2N(wt) (Mus musculus, UniProt P15920); experiment: ARNO-derived peptide pull-down with in vitro translated 6His-a2N(wt); type: binding; details: 7 nmol biotin-tagged peptide on streptavidin-agarose beads
T2 construct: amino acid residues 1-402 of mouse V-ATPase a2-subunit (a2N1-402); made in house; host or cells: cell-free in vitro translation
T2 sequence (P15920 1-402): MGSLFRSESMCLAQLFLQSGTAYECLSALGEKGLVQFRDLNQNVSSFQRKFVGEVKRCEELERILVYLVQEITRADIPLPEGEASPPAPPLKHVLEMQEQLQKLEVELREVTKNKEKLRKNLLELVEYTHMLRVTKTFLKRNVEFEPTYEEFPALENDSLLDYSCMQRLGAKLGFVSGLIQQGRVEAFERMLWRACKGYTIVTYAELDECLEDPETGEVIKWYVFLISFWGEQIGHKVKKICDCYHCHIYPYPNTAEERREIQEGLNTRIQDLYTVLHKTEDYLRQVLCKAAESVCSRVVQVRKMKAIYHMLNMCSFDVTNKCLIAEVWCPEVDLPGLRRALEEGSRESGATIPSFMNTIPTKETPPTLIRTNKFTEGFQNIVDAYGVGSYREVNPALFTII
Experimental: FIGS. 4B-C are images of Western blots showing (4B) the results of peptide pull-down assays for interaction of a2N with Sec7-PH-linker of ARNO and (4C) phosphorylation-dependent interaction of a2N with ARNO-derived peptide corresponding to the PB-domain of ARNO. Corresponding ARNO-derived peptides were immobilized on streptavidin-beads and incubated with in vitro translated recombinant a2N. Interacting complexes were eluted and analyzed by Western blotting using anti-a2N antibodies.
ARNO-derived peptides, equal amounts (7 nmol) of biotin-tagged synthetic peptides were also immobilized on streptavidin-agarose beads followed by incubation with 10 μl of in vitro translated 6His-a2N(wt) recombinant protein. Pull-down experiments and SDS-PAGE analysis were performed as described above and interacting 6His-a2N/ARNO-derived-peptide complexes were analyzed by Western blotting using polyclonal anti-a2N antibody. All experiments were repeated at least three times with similar results.

[3] = biological target: T3, purified 6His-a2N (recombinant a2N protein, a2N1-402, expressed in E. coli and refolded) (mouse, UniProt P15920 1-402); experiment: SPR (BIAcore T100), a2N immobilised on CM4 chip, ARNO(wt) as analyte, bivalent analyte fit
T3 construct: Immobilised by amine coupling on a CM4 chip for SPR; also called a2N(wt); a2N-His6(wt)
T3 sequence: T2 sequence (P15920 1-402)
Experimental: All reagents, including buffers, sensor chips and the amine coupling kit, were obtained from GE Healthcare. For kinetic analysis of the binding of ARNO(wt) with a2N(wt), purified 6His-a2N (5 μg/ml) in 10 mM sodium acetate (pH 4.0) was immobilized at 80 response units (RU) on a CM4 sensor chip using an amine coupling kit according to the manufacturer's instructions. The same kit was used to perform blank immobilization to create a reference surface on the same chip. Samples of purified GST-ARNO(wt) at concentrations ranging from 0.25-4 μM were injected for 6 min over active and reference surfaces at a flow rate of 30 μl/min in NBS-EP, 1 mM DTT running buffer (10 mM Hepes, pH 7.4, 150 mM NaCl, 3 mM EDTA, 0.05% Surfactant P20, 1 mM DTT). For kinetic analysis of the binding of the ARNO Sec7-domain with a2N-01 peptide, neutravidin (10 μg/ml) in 10 mM sodium acetate (pH 5.0) was immobilized at about 1200 RU on two surfaces of a CM4 sensor chip using an amine coupling kit. Following that, biotinylated a2N-01 peptide (50 RU) and amine-PEG₃-biotin (25 RU) were irreversibly captured by neutravidin to create active and a reference surfaces, respectively. Purified Sec7-6His recombinant protein was injected for 3.5 min over active and reference surfaces at concentrations ranging from 0.05-1 μM and a flow rate of 100 μl/min in NBS-EP, 1 mM DTT running buffer. Dissociation of the complexes was monitored for 10 min, and then the regeneration of the sensor surfaces was performed using 0.05% SDS with 1-min injection in the running buffer at a 20 μl/min flow rate. BIAcore™ T100 Evaluation software was used to calculate the association and dissociation rate constants (kₒₙ and koff) with a 1:1 fitting model. The dissociation constant (KD) was determined from the kₒₙ/koff values. To estimate affinity of interaction the corresponding free energy of binding ΔGbind=RTlnKD was calculated as previously described (Marles et al., Mol Cell 14 (2004) 813-823).
Specific concentration-dependent responses were obtained for both interactions. […]

[4] = biological target: T4, GST-only (UniProt P08515 1-218 = GST); experiment: peptide pull-down: biotinylated peptide on streptavidin-agarose beads, GST-only in solution, Western blot with anti-GST antibody
T4 construct: Control bait/prey in pull-down assays; also called GST (negative control)
Experimental: FIGS. 5A-C are a set of three images of Western blots showing the identification of interaction motif of a2N that is involved in specific binding with the Sec7 domain of ARNO. 5A, The catalytic Sec7 domain of ARNO interacts with two a2N-derived peptides, a2N-01 and a2N-03, in pull-down experiments. The peptide pull-down assay was performed with six a2N-derived interaction peptides immobilized on streptavidin-beads and incubated with purified recombinant GST-only or GST-Sec7 domain. Interacting complexes were eluted and analyzed by Western blotting using monoclonal anti-GST antibodies as described below. The loading controls for GST-only (lane 1) or GST-Sec7 (lane 2) are shown. 5B, 5C: Peptide a2N-01 specifically interacts with Sec7 but not PH-domain (5B) or PB-domain (5C) of ARNO. The peptide pull-down assay was performed with peptides a2N-01 and a2N-03 immobilized on streptavidin-beads and incubated with purified recombinant GST-PH domain (5B) or GST-PB domain (5C). Interacting complexes were eluted and analyzed by Western blotting using monoclonal anti-GST antibodies. The loading control of GST-PH-domain (5B) or GST-PB-domain (5C) is shown on the left.
These a2N-derived peptides were immobilized by an N-terminal biotin-tag, which ensured the same efficiency and equivalent binding to streptavidin-agarose beads. Simultaneous pull-down experiments with immobilized peptides were performed using highly purified recombinant GST-only or GST-Sec7-6His as described below. […] To remove unbound peptides, beads were collected by centrifugation and washed in 500 μl ice-cold binding buffer. Next, equal amounts (20 pmoles) of highly purified recombinant GST-only or GST-Sec7-6His were added to the beads containing immobilized peptides and incubated for 2 hours at 4° C. in 500 μl of binding buffer. After washing beads four times in ice-cold binding buffer, the interacting complexes were eluted by boiling in SDS-PAGE sample buffer for 10 min at 95° C., resolved by SDS-PAGE and analyzed by Western blotting using monoclonal anti-GST antibody.

T4 sequence (P08515 whole entry): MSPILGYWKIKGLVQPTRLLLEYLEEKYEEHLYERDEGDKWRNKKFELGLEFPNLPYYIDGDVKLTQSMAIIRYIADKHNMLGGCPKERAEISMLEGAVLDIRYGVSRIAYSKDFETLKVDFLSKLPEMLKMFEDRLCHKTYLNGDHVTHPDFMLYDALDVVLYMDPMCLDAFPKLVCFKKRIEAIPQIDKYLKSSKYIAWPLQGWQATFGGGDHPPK

Molecule: Bio-NMCSFDVTNKCLIAEVWCP-Cys (NMCSFDVTNKCLIAEVWCPC) [a2N-18, AA 313-331 of a2N]
interaction of a2N-derived peptide with GST-ARNO(wt) in pull-down [1]: specific interaction; also recorded: capable of interaction with ARNO | interaction with ARNO (asterisk mark in Table 1) [1]: Bio-NMCSFDVTNKCLIAEVWCP-Cys *

Molecule: Bio-GYTIVTYAELDECLEDP-Cys (GYTIVTYAELDECLEDPC) [a2N-11, AA 198-214 of a2N]
interaction of a2N-derived peptide with GST-ARNO(wt) in pull-down [1]: specific interaction; also recorded: capable of interaction with ARNO | interaction with ARNO (asterisk mark in Table 1) [1]: Bio-GYTIVTYAELDECLEDP-Cys *

Molecule: Sec7/PH-linker: peptide corresponding to the Sec7/PH-linker region (242-261aa) of ARNO, SEQ ID NO:31 (PFKIPEDDGNDLTHTFFNPD)
interaction of ARNO-derived peptide with a2N [2]: reproducibly observed

Molecule: Bio-ETGEVIKWYVFLISFW-Cys (ETGEVIKWYVFLISFWC) [a2N-12, AA 215-230 of a2N]
interaction of a2N-derived peptide with GST-ARNO(wt) in pull-down [1]: specific interaction; also recorded: capable of interaction with ARNO | interaction with ARNO (asterisk mark in Table 1) [1]: Bio-ETGEVIKWYVFLISFW-Cys *

Molecule: Bio-KHVLEMQEQLQKLEVELREVTKNKEKLRKNLLELVE-Cys (KHVLEMQEQLQKLEVELREVTKNKEKLRKNLLELVEC) [a2N-06, AA 92-127, predicted CC-domain of a2N]
interaction of a2N-derived peptide with GST-ARNO(wt) in pull-down [1]: did not bind

B1: GST-ARNO(wt) (other, human, UniProt Q99418 1-400, looked up)
chain: T1 sequence (Q99418 1-400)
notes: range 1-400; Double-tagged construct (N-terminal GST, C-terminal 6xHis); also called full length ARNO(wt); wild-type ARNO; not shown: N-terminal GST-tag from the pGEX6P-1 vector; C-terminal 6xHis-tag
Kd [3]: 313 nM | koff [3]: 0.0015 s⁻¹ | kon [3]: 4770 M⁻¹ s⁻¹

Now from value to molecule, other results behind:

interaction of ARNO-derived peptide with a2N [2]: completely abolished
Molecule: ARNO375-440^P: phosphorylated version (Ser392) of the ARNO PB-domain peptide, SEQ ID NO:33 (VSVDPFYEMLAARKKRI[pS]VKKKQEQP)

interaction with ARNO (asterisk mark in Table 1) [1]: Bio-YGVGSYREVNPALFTII-Cys *
Molecule: Bio-YGVGSYREVNPALFTII-Cys (YGVGSYREVNPALFTIIC) [a2N-22, AA 386-402 of a2N]
interaction of a2N-derived peptide with GST-ARNO(wt) in pull-down [1]: specific interaction; also recorded: capable of interaction with ARNO

binding result [4]: no binding
B2: a2N-18 (peptide)
peptide: Biotin-NMCSFDVTNKCLIAEVWCPC
modifications: cysteine pairing not given here
notes: also called a2N313-331

binding result [4]: no binding
B3: a2N-11 (peptide)
peptide: Biotin-GYTIVTYAELDECLEDPC
modifications: cysteine pairing not given here
notes: also called a2N198-214

binding result [4]: no binding
B4: a2N-03 (peptide)
peptide: Biotin-VQFRDLNQNVSSFQRC
notes: also called a2N35-49

binding result [4]: no binding
B5: a2N-22 (peptide)
peptide: Biotin-YGVGSYREVNPALFTIIC

binding result [4]: no binding
B6: a2N-12 (peptide)
peptide: Biotin-ETGEVIKWYVFLISFWC
notes: also called a2N215-230
